In article PMC9367181 (Chemico-Biological Interactions, 2022) one finds Ki and Km data, which are given here for 3 molecules.

The target of one series is T1, human carboxylesterase 1 (Homo sapiens, UniProt P23141).
T1 sequence (P23141 18-567): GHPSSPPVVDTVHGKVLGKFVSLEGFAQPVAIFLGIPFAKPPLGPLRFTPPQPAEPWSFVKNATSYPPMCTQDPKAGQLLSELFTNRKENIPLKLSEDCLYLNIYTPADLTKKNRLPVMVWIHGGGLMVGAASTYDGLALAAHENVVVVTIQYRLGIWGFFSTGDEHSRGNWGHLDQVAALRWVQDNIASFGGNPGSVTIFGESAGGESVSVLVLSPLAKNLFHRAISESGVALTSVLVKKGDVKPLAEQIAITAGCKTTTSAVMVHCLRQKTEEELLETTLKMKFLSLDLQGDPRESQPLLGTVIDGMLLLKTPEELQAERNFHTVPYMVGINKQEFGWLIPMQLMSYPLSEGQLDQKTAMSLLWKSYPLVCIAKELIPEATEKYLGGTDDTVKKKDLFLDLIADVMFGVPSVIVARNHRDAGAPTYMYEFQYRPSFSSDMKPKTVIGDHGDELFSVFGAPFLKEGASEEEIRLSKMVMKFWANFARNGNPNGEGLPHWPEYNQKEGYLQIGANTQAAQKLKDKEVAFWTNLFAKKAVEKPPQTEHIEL
The experiment in a line: inhibition of remdesivir hydrolysis in CES1-expressing cell S9 fraction, HPLC. Format: biochemical.

Substrate in series [1]: CCC(CC)COC(=O)[C@H](C)N[P@](=O)(OC[C@H]1O[C@@](C#N)(c2ccc3c(N)ncnn23)[C@H](O)[C@@H]1O)Oc1ccccc1
Briefly: Michaelis-Menten kinetics of hydrolysis to GS-704277 in S9 fraction, HPLC. Format: biochemical, Homo sapiens.

Usually Ki stands for a measure of affinity in units of concentration, obtained from inhibition or displacement. Turning to `C=C(C)[C@@H]1CCC(C)=C[C@H]1c1c(O)cc(CCCCC)cc1O` [cannabidiol], at human carboxylesterase 1, the Ki turned out to be 890 nM. That is a sub-micromolar value.

B1: human carboxylesterase 1 (Homo sapiens) (protein)
chain: GHPSSPPVVDTVHGKVLGKFVSLEGFAQPVAIFLGIPFAKPPLGPLRFTPPQPAEPWSFVKNATSYPPMCTQDPKAGQLLSELFTNRKENIPLKLSEDCLYLNIYTPADLTKKNRLPVMVWIHGGGLMVGAASTYDGLALAAHENVVVVTIQYRLGIWGFFSTGDEHSRGNWGHLDQVAALRWVQDNIASFGGNPGSVTIFGESAGGESVSVLVLSPLAKNLFHRAISESGVALTSVLVKKGDVKPLAEQIAITAGCKTTTSAVMVHCLRQKTEEELLETTLKMKFLSLDLQGDPRESQPLLGTVIDGMLLLKTPEELQAERNFHTVPYMVGINKQEFGWLIPMQLMSYPLSEGQLDQKTAMSLLWKSYPLVCIAKELIPEATEKYLGGTDDTVKKKDLFLDLIADVMFGVPSVIVARNHRDAGAPTYMYEFQYRPSFSSDMKPKTVIGDHGDELFSVFGAPFLKEGASEEEIRLSKMVMKFWANFARNGNPNGEGLPHWPEYNQKEGYLQIGANTQAAQKLKDKEVAFWTNLFAKKAVEKPPQTEHIEL
As a reminder, the Km is the concentration of substrate that gives half-maximal velocity. With B1, the Km in series [1] was 14.19 µM.

B2: human carboxylesterase 1 (Homo sapiens; G143E) (protein)
chain: GHPSSPPVVDTVHGKVLGKFVSLEGFAQPVAIFLGIPFAKPPLGPLRFTPPQPAEPWSFVKNATSYPPMCTQDPKAGQLLSELFTNRKENIPLKLSEDCLYLNIYTPADLTKKNRLPVMVWIHGGELMVGAASTYDGLALAAHENVVVVTIQYRLGIWGFFSTGDEHSRGNWGHLDQVAALRWVQDNIASFGGNPGSVTIFGESAGGESVSVLVLSPLAKNLFHRAISESGVALTSVLVKKGDVKPLAEQIAITAGCKTTTSAVMVHCLRQKTEEELLETTLKMKFLSLDLQGDPRESQPLLGTVIDGMLLLKTPEELQAERNFHTVPYMVGINKQEFGWLIPMQLMSYPLSEGQLDQKTAMSLLWKSYPLVCIAKELIPEATEKYLGGTDDTVKKKDLFLDLIADVMFGVPSVIVARNHRDAGAPTYMYEFQYRPSFSSDMKPKTVIGDHGDELFSVFGAPFLKEGASEEEIRLSKMVMKFWANFARNGNPNGEGLPHWPEYNQKEGYLQIGANTQAAQKLKDKEVAFWTNLFAKKAVEKPPQTEHIEL
With B2, in series [1], the Km was 93.94 µM.
